Source: the supplement of paper PMC9112550, “Optimization of the antimicrobial peptide Bac7 by deep mutational scanning” (BMC Biology, 2022)

test system: Escherichia coli TOP10; experiment: shrunken log2 fold change of peptide-encoding DNA abundance (4.5 h post-induction vs induction); higher = less antimicrobial activity (less host growth inhibition); details: time post-induction: 4.5 h; library: site-saturation at positions 5, 18, 19, 20
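Also: peptides expressed intracellularly from a pBAD plasmid library in pooled LB shake-flask culture, induced with 0.3% L-arabinose, DNA abundance read by NGS, three biological replicates, DESeq2 with apeglm shrinkage.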

Sequence | shrunken log2 fold change
RRIRMRPPRLPRPRPRPTNVPRP | -0.0668
RRIRMRPPRLPRPRPRPTPCPRP | 0.746
RRIRMRPPRLPRPRPRPTPGPRP | 1.13
RRIRMRPPRLPRPRPRPTPVPRP | 1.14
RRIRMRPPRLPRPRPRPTQQPRP | 0.54
RRIRMRPPRLPRPRPRPTQSPRP | 1.03
RRIRMRPPRLPRPRPRPTRWPRP | 2.21
RRIRMRPPRLPRPRPRPTTFPRP | 0.00693
RRIRMRPPRLPRPRPRPTVDPRP | 0.00715
RRIRMRPPRLPRPRPRPTWDPRP | 0.762
RRIRMRPPRLPRPRPRPTWVPRP | 0.496
RRIRMRPPRLPRPRPRPTYMPRP | -0.131
RRIRMRPPRLPRPRPRPVAQPRP | 0.963
RRIRMRPPRLPRPRPRPVATPRP | 1.64
RRIRMRPPRLPRPRPRPVAVPRP | 0.55
RRIRMRPPRLPRPRPRPVDHPRP | -0.0711
RRIRMRPPRLPRPRPRPVEHPRP | -0.00663
RRIRMRPPRLPRPRPRPVHDPRP | 0.0188
RRIRMRPPRLPRPRPRPVHGPRP | 0.32
RRIRMRPPRLPRPRPRPVIMPRP | -0.101

Sequence | shrunken log2 fold change
RRIRMRPPRLPRPRPRPVLKPRP | 0.072
RRIRMRPPRLPRPRPRPVLTPRP | 0.27
RRIRMRPPRLPRPRPRPVMDPRP | 0.025
RRIRMRPPRLPRPRPRPVMGPRP | 0.387
RRIRMRPPRLPRPRPRPVMHPRP | 0.154
RRIRMRPPRLPRPRPRPVPSPRP | 0.588
RRIRMRPPRLPRPRPRPVRAPRP | 1.08
RRIRMRPPRLPRPRPRPVSCPRP | 0.141
RRIRMRPPRLPRPRPRPVSYPRP | -0.00671
RRIRMRPPRLPRPRPRPVTGPRP | -0.00102
RRIRMRPPRLPRPRPRPVYEPRP | 0.352
RRIRMRPPRLPRPRPRPWDKPRP | -0.0134
RRIRMRPPRLPRPRPRPWEMPRP | -0.0802
RRIRMRPPRLPRPRPRPWFHPRP | -0.121
RRIRMRPPRLPRPRPRPWFKPRP | -0.665
RRIRMRPPRLPRPRPRPWFSPRP | -0.0415
RRIRMRPPRLPRPRPRPWIAPRP | -0.00608
RRIRMRPPRLPRPRPRPWIIPRP | -0.0943
RRIRMRPPRLPRPRPRPWMMPRP | 0.024
RRIRMRPPRLPRPRPRPWMWPRP | -0.0668

Sequence | shrunken log2 fold change
RRIRMRPPRLPRPRPRPWPHPRP | 0.512
RRIRMRPPRLPRPRPRPWPTPRP | 0.675
RRIRMRPPRLPRPRPRPWQGPRP | 0.155
RRIRMRPPRLPRPRPRPWSGPRP | -0.0411
RRIRMRPPRLPRPRPRPWTDPRP | -0.035
RRIRMRPPRLPRPRPRPWTMPRP | 0.0064
RRIRMRPPRLPRPRPRPWVMPRP | -0.022
RRIRMRPPRLPRPRPRPWWCPRP | 0.0647
RRIRMRPPRLPRPRPRPWWVPRP | -0.129
RRIRMRPPRLPRPRPRPWWYPRP | -1.27
RRIRMRPPRLPRPRPRPWYFPRP | -0.282
RRIRMRPPRLPRPRPRPYADPRP | 0.419
RRIRMRPPRLPRPRPRPYFKPRP | -0.647
RRIRMRPPRLPRPRPRPYFTPRP | -0.362
RRIRMRPPRLPRPRPRPYFVPRP | 0.0021
RRIRMRPPRLPRPRPRPYGKPRP | -0.0311
RRIRMRPPRLPRPRPRPYHTPRP | -1.11
RRIRMRPPRLPRPRPRPYHYPRP | -0.638
RRIRMRPPRLPRPRPRPYIVPRP | -0.00174
RRIRMRPPRLPRPRPRPYKNPRP | -0.259
